The assay deals with T1, Human salivary α-amylase (human, UniProt P0DUB6 16-511).
T1 sequence (looked up): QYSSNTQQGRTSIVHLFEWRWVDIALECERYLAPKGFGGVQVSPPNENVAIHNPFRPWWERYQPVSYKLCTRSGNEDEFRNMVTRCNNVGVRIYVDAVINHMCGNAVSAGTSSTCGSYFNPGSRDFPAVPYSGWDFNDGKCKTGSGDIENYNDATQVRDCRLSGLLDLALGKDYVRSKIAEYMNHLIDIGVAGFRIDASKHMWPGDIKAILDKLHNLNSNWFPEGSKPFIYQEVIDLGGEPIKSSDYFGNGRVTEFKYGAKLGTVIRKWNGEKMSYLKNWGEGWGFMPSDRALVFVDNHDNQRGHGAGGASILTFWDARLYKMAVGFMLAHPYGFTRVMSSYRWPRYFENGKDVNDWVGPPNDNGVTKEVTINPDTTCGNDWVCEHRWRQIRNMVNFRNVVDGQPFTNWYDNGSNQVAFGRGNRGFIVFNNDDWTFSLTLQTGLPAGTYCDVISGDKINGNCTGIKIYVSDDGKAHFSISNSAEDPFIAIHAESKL
Kind of assay: SPR. (In general: SPR reads the build-up and loss of mass on a sensor chip optically.)

B1: Amylase binding protein A (natural protein, S. gordonii, UniProt A8AZZ3 1-195, looked up)
chain: MKKVLLSSVVALTLFAAAAPVFSADEATDAARNNDGAYYLQTQFTNADKVNEYLAQHDGEIRAEAAADPAVVAAKAALDAVEGGSHNYGEVKAAYEAAFNNAFNAVRNKYVQQFQATYNNATEQEGKTYIQGETPEQANARYLKRVGAANNQNPAAEDKGATTPASKEEAKKSEAAAKNAGKAAGKALPKTSAVK
In the case of B1, the Ka worked out at 8.79e+07 M⁻¹; the affinity, expressed as Kd, was 11.3 nM; the off-rate (koff) was found to be 0.000307 s⁻¹; the kon came to 27000 M⁻¹ s⁻¹.

Usually Kd stands for the constant that tells how readily two partners part at equilibrium. For orientation: koff means a measure of how fast the partners let go of each other. Higher therefore signals fast dissociation. As usually defined, the kon is the second-order rate constant of association.

The values above are taken from paper PMC2644404 (Journal of molecular biology, 2008).
